Data set [1] deals with the molecule itself. Nature of the data set: SEC; Superdex S200 10/300 GL, 20 mM Tris pH 7, 100 mM KCl, 5 mg/mL protein; column standardized with LMW and HMW standards; peak fractions checked by anti-His Western blot.
Data set [2] deals with GST-CdsN (Chlamydia pneumoniae CWL029). The data set is described as follows: ELISA; glutathione plate assay: GST fusion captured from lysate on glutathione coated plates, bacterial lysate over-expressing the His-tagged protein added, 4°C 2 hours; washed with 500 mM NaCl, 0.1% Triton X-100, 50 mM TRIS-HCl pH 7.5; anti-6xHis antibody, HRP, OPD, absorbance at 450 nm; positive if two standard deviations above GST alone.

The target in data set [3] is GST-CdsF (Chlamydia pneumoniae CWL029). Described as above.
For data set [4], the target named is GST-CdsQ (Chlamydia pneumoniae CWL029). The data set is described as above.

Several values for one entry are separate records, joined by “and”; a condition that tells them apart may be missing. Equal values may be shown once.

B1: His-Cpn0803 (natural protein)
chain: MAAKTKTLELEDNVFLLLEGNLKRIFATPIGYTTFREFQNVVFNCANGQQEIANFFFEMLINGKLTQELAPQQKQAAHSLIAEFMMPIRVAKDIHERGEFINFITSDMLTQQERCIFLNRLARVDGQEFLLMTDVQNTCHLIRHLLARLLEAQKNPVGEKNLQEIQEEITSLKNHFDELTKALQ
notes: Cpn0803 of Chlamydia pneumoniae CWL029 (ortholog of C. trachomatis CT584), 184 amino acids; Hexamer and dimer in solution by gel filtration; a SeMet derivative was used for phasing only; also called recombinant His-Cpn0803; full-length Cpn0803; source: E. coli, over-expressed, in lysate (glutathione plate assay, GST pull-down); E. coli, purified on a column eluted with 300 mM imidazole …
Consider B1, for which the “stoichiometry N” value in data set [1] is 6 and 2. In addition, the results for the absorbance (450 nm) (absorbance units) in data set [2], in data set [3] and in data set [4] were 0.38, 0.36 and 0.41, respectively.

(Values after article PMC3260263, “Structural Characterization of a Novel Chlamydia pneumoniae Type III Secretion-Associated Protein, Cpn0803” (PLoS ONE, 2012).)
